# Tested on: K4 kissing-loop RNA reporter
# Assay: apparent KD of K4 kissing-loop reporter; higher = weaker reporter binding
# Settings: Eterna round: R107
# Procedure: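 RNA-MaP round R107: designed RNA switches with theophylline, tryptophan, arginine or FMN aptamers are transcribed on-chip within common flanks. They are titrated with a labelled K4 kissing-loop RNA reporter in RNA-MaP buffer (100 mM Tris pH 7.5, 80 mM KCl, 4 mM MgCl2), without ligand or with the indicated ligand. Median apparent KD per design.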
# [1] = input ligand: theophylline 20 uM
# [2] = input ligand: tryptophan 2.4 mM
# 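Also: bound reporter read as fluorescence of individual clusters on recovered sequencing chips by microscopy, with normalized cluster intensities fitted with a binding model.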
Sequence,apparent KD of K4 kissing-loop reporter (input ligand: FMN 200 uM) [nM],apparent KD of K4 kissing-loop reporter (input ligand: arginine 13.2 mM) [nM],apparent KD of K4 kissing-loop reporter (input ligand: none) [nM],apparent KD of K4 kissing-loop reporter [1] [nM],apparent KD of K4 kissing-loop reporter [2] [nM]
AAGCAGUCACUCGUAUCCAUCGAAGAUGGUCGAGGACCGGUACGGCCGCCACUCGGAGUGAUGUUCCGAAGACUGCAAAAUAAAA [#SwitchBubble 13],240,230,250,296,348
AGACUACCACACUGUCAAUAGACAGUGAACUCGGAUAUGCUGAUAAGCAGAAGGAGUGAUGUUCCCAGGUAGUCAAUAAAAUAAU [FmnAX 13 C32+C66],135,111,144,233,142
CCUAUCUCAUACGAUACCAGUGAAUAACCAGUGAUGUUGGAAUAACCAAGGAAUAUUUUACACCCUUGGCAGCGUAUGGGAUAGG [Ex Theophylline B K4 25],274,239,305,270,269
GGAAGACACCUGAGUGAUGUUCGGGUGUGCCGAGGACCGGUACGGCCGCCACUCGGGUGGUACAGUUACUGAUUGGACCGCUAUC [Arbirace],127,203,275,603,204
AGCAGUGAUGUUGCAUUUAUAAUGACCGAUACCAGUAUCGAUAGAUACCCUUGGCAGCGGAUUUCCGCAACGACUAGGAAACUAG [Ex Theophylline A K4 14],305,359,355,508,283
GGGUCAGUCUGAAGGAGCGGCCAGACAGAGCAGUGAUGUUGCUCCUCCGGAAACGGUGUCGGCCAGGUAGGUCGCAGAUUGGCUC [Dienralais mod v1],153,122,137,126,124
AGGCCCGGCCGAAAGGCCGGGCCAAGAGAUACCAGCAGCGAAAGCUGCCCUUGGCAGCUCACUUAGUGAUGUUAAGAAUAGAACA [SS Theo A Tesla 1],538,464,375,485,390
GCAUCCAUGGCAGGAUAUAGGUUCGUGGAGUGAUGUUCCAUAGCCCGAGUGAUGUUCGUUAUCCGCCUAGAAGGGCCAUGGAUGC [whbob_Ex_FMNB__2th213],247,192,227,219,203
GGCAGUGAUGUUGCCAGUGGCAGAUGCGAAGGAGCGCGGUGAGACGCAGGUAGGUCGCGCAUUGAAAUUGCUGUCACUAAAAUGC [#1],261,274,290,320,238
UGUGAACAAAAGUAGAGUGGACCACUAUAGCGAGGACCGGUACGGCCGCCACUCGUAUAUAAAUUCAGUGAUGUUGAAAAGAGCU [Exclusion Tryptophan A GF1],175,283,215,260,149
GUUACGCAUGGAAGGAGCGCAGGCUCAACUUGAAGCUCAGUGAUGUUGAGCAAAUUAAAACUGCAGGUAGGUCGCCAUGUGUAAC [Ex Arginine B K4 27],548,474,655,644,448

# From the supplement of paper PMC9170038
